T1: Fn14 gene fragment RW131 on phage (human, UniProt Q9NP84 23-69)
T1 construct: not shown: M13 pIII coat protein (gene fragment library in pHENH6)
T1 chain: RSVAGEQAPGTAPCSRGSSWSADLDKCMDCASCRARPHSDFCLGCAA

T2: Fn14 gene fragment RW114 on phage (human, UniProt Q9NP84 31-70)
T2 construct: not shown: M13 pIII coat protein (gene fragment library in pHENH6)
T2 chain: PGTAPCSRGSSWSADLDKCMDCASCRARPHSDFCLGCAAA

T3: Fn14 gene fragment RW95 on phage (human, UniProt Q9NP84 37-90)
T3 construct: not shown: M13 pIII coat protein (gene fragment library in pHENH6)
T3 sequence: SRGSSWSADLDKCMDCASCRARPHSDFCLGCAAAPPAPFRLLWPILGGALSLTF

B1: CRCBT-06-001 (antibody, IgG2b, V domains shown)
VH: QVQLQQSGGGLVQPGGSMKLSCIASGFTFSSYWMSWVRQSPEKGLEWVAEIRSKSDNYATHYAESVKGKFTISRDDSKSRFFLQMNNLRAEDTGIYYCSSTYADYFHYWGQGTDLTVSS
VL: DIVMTQTPASLAVSLGQRATISCRASQSVSTSTYSYMHWYQQKPGQPPKLLIKYASSLESGVPARFSGSGSGTDFTLNIHPVEEDDTATYYCQHSWEIPYTFGGGTKLEIKR
B2: CRCBT-06-002 (antibody, IgG1, V domains shown)
VH: EVKLQQSGGGLVQPGGSMKLSCVASGFTFSYYWMNWVRQSPEQGLEWIAEIRLQSNDYPTHYAESVKGRFTISRDDSKNSVYLQMNNLRPEDTGIYYCACRYADYFDHWGQGTTLTVSS
VL: DTVLTQSPASLVVSLGQRATISCRASQSVSTSDYSYIHWYQQKPGQPPKFLIKYASNRDSGVPARFSGSGSGTDFTLNIHPVEEDDTAIYYCQHSWEIPPTFGAGTKLELQR

Key:
[1] = biological target: T4, recombinant Fn14-Fc (human, UniProt Q9NP84 28-77); assay: SPR (ProteOn XPR36), mAb captured on anti-mouse IgG, Fn14-Fc analyte, Langmuir fit
T4 construct: also called native Fn14; not shown: Fc region (recognised by anti-human Fc)
T4 sequence (Q9NP84 28-77): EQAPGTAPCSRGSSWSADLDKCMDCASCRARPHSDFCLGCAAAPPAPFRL
Protocol: (§1) The interaction of mouse anti-Fn14 IgG monoclonal antibodies CRCBT-06-001 and CRCBT-06-002 with recombinant Fn14-Fc was measured using the Bio-Rad ProteOn XPR36 essentially as described by Nahshol et al., (2008). Briefly, a GLM ProteOn sensor chip was activated by flowing a mixture of 0.2 M EDC and 0.05 M sulpho-NHS over the chip (150 μl at 30 μl/min for 5 minutes). Rabbit anti-mouse IgG whole molecule (Sigma M-7023) was then coupled to the chip in the vertical orientation by flowing 150 μl of a 50 μg/ml solution in 10 mM acetate buffer (pH 4.5) at 30 μl/min. The remaining coupling sites were then deactivated by flowing 150 μl of 1 M ethanolamine-HCl (pH 8.5) at 30 μl/min. Mouse anti-Fn14 IgG monoclonal antibodies were then bound to the coupled anti-mouse IgG antibody by flowing 150 μl of 100 μg/ml IgG at 25 μl/min over a single channel of the sensor chip in the horizontal direction. […] PBS Tween 20 (0.005%) alone was passed over the remaining channel. Binding sensorgrams were collected and analyzed with the ProteOn Manager 2.1 XPR36 software using the Langmuir or bivalent analyte kinetic models to fit the data and determine the affinity constant KD.
(§2) A Bio-Rad ProteOn XPR36 was used to determine the affinity of mouse monoclonal anti-Fn14 antibodies CRCBT-06-001 and CRCBT-06-002 to recombinant Fn14-Fc. It is clear that both antibodies tested display a high on-rate and a low off-rate. The ProteOn software was used to fit a curve to the sensorgram based on a mathematical model, enabling the kinetics of the interaction (ka, Kd and KD) to be calculated. A number of models can be used to fit the curves to the sensorgram, essentially the models used for each sensorgram were used as they provided the best fit, as evident by the low Chi² value obtained for the residuals.

[2] = biological target: T5, Fn14 gene fragment RW129 on phage (human, UniProt Q9NP84 32-74); assay: phage ELISA, Fn14 gene fragments on phage, CRCBT-06-001 wells versus blank wells
T5 construct: not shown: M13 pIII coat protein (gene fragment library in pHENH6)
T5 sequence (Q9NP84 32-74): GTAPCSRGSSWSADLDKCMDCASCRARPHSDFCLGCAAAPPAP

[3] = biological target: T1, Fn14 gene fragment RW131 on phage; assay: as above
[4] = biological target: T6, Fn14 gene fragment RW125 on phage (human, UniProt Q9NP84 31-74); assay: as above
T6 construct: not shown: M13 pIII coat protein (gene fragment library in pHENH6)

[5] = biological target: T7, Fn14 gene fragment RW120 on phage (human, UniProt Q9NP84 31-74); assay: as above
T7 construct: not shown: M13 pIII coat protein (gene fragment library in pHENH6)

[6] = biological target: T2, Fn14 gene fragment RW114 on phage; assay: as above
[7] = biological target: T3, Fn14 gene fragment RW95 on phage; assay: as above
[8] = biological target: phage-displayed hFn14 mutant T33N (human, UniProt Q9NP84 28-77); assay: phage ELISA, antibody on plate
phage-displayed hFn14 mutant T33N, sequence (Q9NP84 28-77 T33N): as the sequence (Q9NP84 28-77) above, with T6N counted along it

[9] = biological target: phage-displayed hFn14 mutant A34S (human, UniProt Q9NP84 28-77); assay: phage ELISA, antibody on plate
phage-displayed hFn14 mutant A34S, sequence (Q9NP84 28-77 A34S): as the sequence (Q9NP84 28-77) above, with A7S counted along it

[10] = biological target: phage-displayed hFn14 mutant R38S (human, UniProt Q9NP84 28-77); assay: phage ELISA, antibody on plate
phage-displayed hFn14 mutant R38S, sequence (Q9NP84 28-77 R38S): as the sequence (Q9NP84 28-77) above, with R11S counted along it

[11] = biological target: phage-displayed hFn14 mutant R56P (human, UniProt Q9NP84 28-77); assay: phage ELISA, antibody on plate
phage-displayed hFn14 mutant R56P, sequence (Q9NP84 28-77 R56P): as the sequence (Q9NP84 28-77) above, with R29P counted along it

[12] = biological target: phage-displayed hFn14 mutant L77M (human, UniProt Q9NP84 28-76); assay: phage ELISA, antibody on plate
phage-displayed hFn14 mutant L77M, sequence (Q9NP84 28-77 L77M): as the sequence (Q9NP84 28-77) above, with L50M counted along it

[13] = biological target: T4, recombinant Fn14-Fc; assay: SPR (ProteOn XPR36), mAb captured on anti-mouse IgG, Fn14-Fc analyte, bivalent analyte fit
Protocol: as §1, §2

Binder	Kd [1] [nM]	koff [1] [s⁻¹]	kon [1] [M⁻¹ s⁻¹]	binding result [2]	binding result [3]	binding result [4]	binding result [5]	binding result [6]	binding result [7]	binding result [8]	binding result [9]	binding result [10]	binding result [11]	binding result [12]	Kd [13] [nM]	koff [13] [s⁻¹]	kon [13] [M⁻¹ s⁻¹]
B1	0.768	1.81e-05	23600	binds	binds	binds	binds	binds	no binding								
B2										binds	binds	binds	binds	binds	0.935	1.42e-05	15200
